Here are results for one protein from PMC10706272, “Improving the Thermostability of Thermomyces lanuginosus Lipase by Restricting the Flexibility of N-Terminus and C-Terminus Simultaneously via the 25-Loop Substitutions” (International Journal of Molecular Sciences, 2023).

Substrate in the series: CCCCCCCCCCCCCCCC(=O)Oc1ccc([N+](=O)[O-])cc1
In words: initial-rate hydrolysis of pNPP, p-nitrophenol release, Michaelis-Menten fit. Format: biochemical, Thermomyces lanuginosus. Particulars: 37 °C, pH 9.0, Tris-HCl 100 mM, apparent Km, pNPP 0.25-10 mM. From the text: initial-rate hydrolysis of pNPP, p-nitrophenol release, Michaelis-Menten fit on TLL (Thermomyces lanuginosus lipase)

B1: TLL (Thermomyces lanuginosus lipase) (Thermomyces lanuginosus) (protein)
chain: EVSQDLFNQFNLFAQYSAAAYCGKNNDAPAGTNITCTGNACPEVEKADATFLYSFEDSGVGDVTGFLALDNTNKLIVLSFRGSRSIENWIGNLNFDLKEINDICSGCRGHDGFTSSWRSVADTLRQKVEDAVREHPDYRVVFTGHSLGGALATVAGADLRGNGYDIDVFSYGAPRVGNRAFAEFLTVQTGGTLYRITHTNDIVPRLPPREFGYSHSSPEYWIKSGTLVPVTRNDIVKIEGIDATGGNNQPNIPDIPAHLWYFGLIGTCL
Take B1: the Km was 220 ± 50 µM, the maximal velocity (Vmax) is 402 µmol/min/mg, the turnover number (kcat) was determined as 594 ± 4 s⁻¹ and the kcat/Km came to 2.72e+06 ± 54000 M⁻¹ s⁻¹.
